Assays:
[1] = molecular target: T1, HER3 (UniProt P21860 20-1342, limits assumed); test: cell-based or functional assay
[2] = molecular target: T1, HER3; test: cell-based or functional assay; remark: listed apart in the source
[3] = molecular target: T1, HER3; test: flow cytometry, serial dilution on FaDu cells (HER3-expressing), PE anti-His detection
Protocol: (§1) Cell binding studies were performed by flow cytometry using cell lines with different expression levels of HER3 (Table 1). Adherent cells were washed with PBS and shortly trypsinized at 37° C. Trypsin was quenched with FCS-containing medium and removed by centrifugation (500×g, 5 min.). 1×10⁵ target cells (MCF-7, Jurkat, BT-474, FaDu, or LIM1215) were incubated with a serial dilution of recombinant proteins for 1 hour at 4° C. Bound protein was detected using a PE-conjugated anti-hexahistidyl tag mAb (Miltenyi Biotec). Incubation and washing steps were performed in PBS, 2% FBS, and 0.02% sodium azide. Fluorescence was measured by MACSQuant VYB (Miltenyi Biotec) and data were analyzed using FlowJo (Tree Star). Relative median fluorescence intensities (MFI) were calculated as followed: relative MFI=((MFIₛₐₘₚₗₑ−(MFIdetection−MFIcells))/MFIcells).

[4] = molecular target: T2, CD3 (UniProt P07766 23-207); test: flow cytometry, serial dilution on Jurkat cells (CD3-expressing), PE anti-His detection
T2 construct: whole, on cells; on cells it stands in the TCR/CD3 complex; also called CD3 on Jurkat cells
Protocol: as §1

[5] = molecular target: T1, HER3; test: flow cytometry, serial dilution on MCF-7 cells (HER3-expressing), PE anti-His detection
Protocol: as §1

[6] = molecular target: T1, HER3; test: flow cytometry, serial dilution on BT-474 cells (HER3-expressing), PE anti-His detection
Protocol: as §1

[7] = molecular target: T1, HER3; test: flow cytometry, serial dilution on LIM1215 cells (HER3-expressing), PE anti-His detection
Protocol: as §1

[8] = molecular target: T1, HER3; test: flow cytometry on HER3-expressing cell lines, EC50 compared with scDb-scFv
Protocol: as §1

B1: scDb3-43xhuU3-scFv3-43-His (bispecific antibody)
chain: QVQLQQSGPGLVKPSQTLSLTCAISGDSVSSNRAAWNWIRQSPSRGLEWLGRTYYRSKWYNDYAQSLKSRITINPDTPKNQFSLQLNSVTPEDTAVYYCARDGQLGLDALDIWGQGTMVTVSSGGGGSDIQMTQSPSSLSASVGDRVTITCRASQDIRNYLNWYQQKPGKAPKLLIYYTSRLHSGVPSRFSGSGSGTDFTFTISSLQPEDIATYYCQQGNTLPWTFGQGTKLEIKRGGGGSGGGGSGGGGSQVQLVQSGAEVKKPGSSVKVSCKASGGTFSGYTMNWVRQAPGQGLEWMGLINPYKGVSTYNGKFKDRVTITADKSTSTAYMELSSLRSEDTAVYYCARSGYYGDSDWYFDVWGQGTLVTVSSGGGGSQAGLTQPPAVSVAPGQTASITCGRDNIGSRSVHWYQQKPGQAPVLVVYDDSDRPAGIPERFSGSNYENTATLTISRVEAGDEADYYCQVWGITSDHVVFGGGTKLTVLAAAGGSGGGGSGGGTQVQLQQSGPGLVKPSQTLSLTCAISGDSVSSNRAAWNWIRQSPSRGLEWLGRTYYRSKWYNDYAQSLKSRITINPDTPKNQFSLQLNSVTPEDTAVYYCARDGQLGLDALDIWGQGTMVTVSSGGGGSGGGGSGGGGSQAGLTQPPAVSVAPGQTASITCGRDNIGSRSVHWYQQKPGQAPVLVVYDDSDRPAGIPERFSGSNYENTATLTISRVEAGDEADYYCQVWGITSDHVVFGGGTKLTVLGSLHHHHHH
notes: Single chain, trivalent: two HER3 sites (3-43) and one CD3 site (huU3); The His tag is part of the entry; also called scDb-scFv; trivalent anti-HER3×anti-CD3 bsAb
[1]
  EC50 of CD69 expression on CD4+ T-cells (CD4+CD69+), MCF-7 co-culture: 0.003 nM
  EC50 of CD69 expression on CD8+ T-cells (CD8+CD69+), MCF-7 co-culture: 0.02 nM
  EC50 of IFN-γ release, PBMCs co-cultured with MCF-7 cells: 0.567 nM
  EC50 of IL-2 release, PBMCs co-cultured with MCF-7 cells: 0.403 nM
  EC50 of proliferation of CD4+ T-cells, MCF-7 co-culture: 0.08 nM
  EC50 of proliferation of CD8+ T-cells, MCF-7 co-culture: 0.09 nM
[2]
  EC50 of PBMC cytotoxicity on BT-474 cells, E:T 5:1: 0.002 nM
  EC50 of PBMC cytotoxicity on BT-474 cells, E:T 10:1: 0.007 nM
  EC50 of PBMC cytotoxicity on FaDu cells, E:T 5:1: 0.2 nM
  EC50 of PBMC cytotoxicity on FaDu cells, E:T 10:1: 0.1 nM
  EC50 of PBMC cytotoxicity on LIM1215 cells, E:T 5:1: 0.003 nM
  EC50 of PBMC cytotoxicity on LIM1215 cells, E:T 10:1: 0.001 nM
  EC50 of PBMC cytotoxicity on MCF-7 cells, E:T 5:1: 0.003 nM
  EC50 of PBMC cytotoxicity on MCF-7 cells, E:T 10:1: 0.001 nM
[3]
  EC50: 0.1 nM
[4]
  EC50: 4 nM
[5]
  EC50: 0.03 nM
[6]
  EC50: 0.2 nM
[7]
  EC50: 0.2 nM

B2: scDb3-43xhuU3-His (bispecific antibody)
chain: QVQLQQSGPGLVKPSQTLSLTCAISGDSVSSNRAAWNWIRQSPSRGLEWLGRTYYRSKWYNDYAQSLKSRITINPDTPKNQFSLQLNSVTPEDTAVYYCARDGQLGLDALDIWGQGTMVTVSSGGGGSDIQMTQSPSSLSASVGDRVTITCRASQDIRNYLNWYQQKPGKAPKLLIYYTSRLHSGVPSRFSGSGSGTDFTFTISSLQPEDIATYYCQQGNTLPWTFGQGTKLEIKRGGGGSGGGGSGGGGSQVQLVQSGAEVKKPGSSVKVSCKASGGTFSGYTMNWVRQAPGQGLEWMGLINPYKGVSTYNGKFKDRVTITADKSTSTAYMELSSLRSEDTAVYYCARSGYYGDSDWYFDVWGQGTLVTVSSGGGGSQAGLTQPPAVSVAPGQTASITCGRDNIGSRSVHWYQQKPGQAPVLVVYDDSDRPAGIPERFSGSNYENTATLTISRVEAGDEADYYCQVWGITSDHVVFGGGTKLTVLAAAHHHHHH
notes: Single-chain diabody, bivalent: one HER3 site (3-43) and one CD3 site (huU3, humanized UCHT1); The His tag is part of the entry; also called anti-HER3×CD3 bispecific scDb
[1]
  EC50 of CD69 expression on CD4+ T-cells (CD4+CD69+), MCF-7 co-culture: 0.1 nM
  EC50 of CD69 expression on CD8+ T-cells (CD8+CD69+), MCF-7 co-culture: 0.16 nM
  EC50 of IFN-γ release, PBMCs co-cultured with MCF-7 cells: 0.609 nM
  EC50 of IL-2 release, PBMCs co-cultured with MCF-7 cells: 0.404 nM
  EC50 of proliferation of CD4+ T-cells, MCF-7 co-culture: 0.5 nM
  EC50 of proliferation of CD8+ T-cells, MCF-7 co-culture: 0.3 nM
[2]
  EC50 of PBMC cytotoxicity on BT-474 cells, E:T 5:1: 0.17 nM
  EC50 of PBMC cytotoxicity on BT-474 cells, E:T 10:1: 0.2 nM
  EC50 of PBMC cytotoxicity on FaDu cells, E:T 5:1: 0.4 nM
  EC50 of PBMC cytotoxicity on FaDu cells, E:T 10:1: 0.3 nM
  EC50 of PBMC cytotoxicity on LIM1215 cells, E:T 5:1: 0.08 nM
  EC50 of PBMC cytotoxicity on LIM1215 cells, E:T 10:1: 0.03 nM
  EC50 of PBMC cytotoxicity on MCF-7 cells, E:T 5:1: 0.07 nM
  EC50 of PBMC cytotoxicity on MCF-7 cells, E:T 10:1: 0.014 nM
[8]
  fold weaker binding than scDb-scFv: ≤ 50 fold
[4]
  EC50: 1.64 nM
[5]
  EC50: 4.7 nM
[6]
  EC50: 9.7 nM
[7]
  EC50: 11.7 nM
